Publication doi:10.1101/2022.04.06.487319 (bioRxiv, 2022)
Several values for one entry are separate records, joined by “and”; a condition that tells them apart may be missing. Equal values may be shown once.

B1: Red1^I743R-MBP (Hop1-Red1 complex from Hi5 cells) (natural protein, Saccharomyces cerevisiae, UniProt P14291 1-827, looked up)
chain: MEGLKKKIFGVCLKNDLAQTRNETKGIHYGLMTLETSKQLQEFLHLLVIKREVIQNFELLFHIINVAVKITDSNLPSDDIWHFILKLRFSSEINIDEDSKVLNYLLETGIAMENPVSWKCLAVISSILSSVPQSKKIITNLIETEHAKKIGQLFDNIQDLQQGNFLVEILSNCFKKSASNSKKVEKIPQLWQSRSKNKFFFENEFYPFSSKNGSLQTCQFLCNNFMSTLSFTGILRQVSYSGSETLKNLRIFKKKDDENSYFIQCIYNKIYLWLDEKAPLEFERKKIRITKNLKNKIQIKLRQPFHECVRTTADKTALLFNKTKGFQLEFEDEKLGETFFHNVNNIPKISEVQNFLVLDYIEEEPENEGEEEEQIGRADEQKEDEEEESLDELSTPMVYPIKSSIPHNHNEKVQLVTPDRSVSIRSDEWDLKSNTEDEEGNVLADLKISSTKETKRQTDYVHIDSEDQSPVVSAQMRKMRRESTKTLEILRQEFKDKDVQNKEDQSEQIQNPFVNTSSLVVGKSCLVNPKEKPNIDQTVVGITELKSNSSIKKRDINILDTIFGQPPSKKQKQFHKKEKKKQQKKLTNFKPIIDVPSQDKRNLRSNAPTKPKSIKVSKLRTDKKVTGEKSSPETAAEKVDDQTVRSNDEQAMSRATKEKCFPDVNEGKEITKDDAKVSLESKKNNETFVDSSVVEKHTPPDKDCNNCNITDILESTTVIDLQSPHGLSAPGQNTFTNKLQEQRYSSINHFSNELVRKISIINQELNKKILKELSEKYQKLFSELQDNFQNDTNEMLKFMGEIKDMMNLPEDQLVHAIRTRKFDNNKR
B4: strep-Hop1 (full length, Hop1-Red1 complex from Hi5 cells) (natural protein, Saccharomyces cerevisiae, UniProt P20050 1-605, looked up)
chain: MSNKQLVKPKTETKTEITTEQSQKLLQTMLTMSFGCLAFLRGLFPDDIFVDQRFVPEKVEKNYNKQNTSQNNSIKIKTLIRGKSAQADLLLDWLEKGVFKSIRLKCLKALSLGIFLEDPTDLLENYIFSFDYDEENNVNINVNLSGNKKGSKNADPENETISLLDSRRMVQQLMRRFIIITQSLEPLPQKKFLTMRLMFNDNVDEDYQPELFKDATFDKRATLKVPTNLDNDAIDVGTLNTKHHKVALSVLSAATSSMEKAGNTNFIRVDPFDLILQQQEENKLEESVPTKPQNFVTSQTTNVLGNLLNSSQASIQPTQFVSNNPVTGICSCECGLEVPKAATVLKTCKSCRKTLHGICYGNFLHSSIEKCFTCIFGPSLDTKWSKFQDLMMIRKVFRFLVRKKKGFPASITELIDSFINVEDQNNEVKERVAFALFVFFLDETLCLDNGGKPSQTIRYVTSSVLVDVKGIVIPNTRKQLNVNHEYKWHFTTSSPKAESFYQEVLPNSRKQVESWLQDITNLRKVYSEALSPSSTLQELDLNSSLPTQDPIISGQKRRRYDLDEYLEEDKSSVVNDTIKAKDFDESVPAKIRKISVSKKTLKSNW

Legend:
[1] = biological target: B4; experiment: mass photometry
mass photometry = biological target: the molecule itself; experiment: mass photometry
[2] = biological target: B1; experiment: pull-down
[3] = biological target: B1; experiment: cross-linking
SEC-MALS = biological target: the molecule itself; experiment: SEC-MALS
strep-Hop1 FL K593A = biological target: T1, strep-Hop1 FL K593A (Saccharomyces cerevisiae, UniProt P20050 1-605, K593A); experiment: pull-down
T1 sequence (looked up): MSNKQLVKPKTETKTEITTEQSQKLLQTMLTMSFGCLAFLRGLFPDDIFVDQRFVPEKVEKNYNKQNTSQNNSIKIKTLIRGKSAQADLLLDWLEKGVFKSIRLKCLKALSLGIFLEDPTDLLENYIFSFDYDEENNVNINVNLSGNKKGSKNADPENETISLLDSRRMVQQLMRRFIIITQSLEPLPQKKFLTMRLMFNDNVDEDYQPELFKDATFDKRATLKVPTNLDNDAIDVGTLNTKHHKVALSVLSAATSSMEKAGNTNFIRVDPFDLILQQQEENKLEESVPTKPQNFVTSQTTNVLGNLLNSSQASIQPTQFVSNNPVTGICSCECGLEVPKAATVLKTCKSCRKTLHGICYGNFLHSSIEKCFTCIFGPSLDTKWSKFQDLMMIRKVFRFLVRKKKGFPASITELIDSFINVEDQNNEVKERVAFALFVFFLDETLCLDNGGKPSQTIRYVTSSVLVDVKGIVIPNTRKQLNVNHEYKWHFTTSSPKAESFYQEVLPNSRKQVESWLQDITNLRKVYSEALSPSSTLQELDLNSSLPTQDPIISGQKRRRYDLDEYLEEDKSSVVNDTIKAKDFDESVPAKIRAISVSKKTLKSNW

B1
stoichiometry N [1]: 1

B2: MBP-Red1^733-819 (WT) (domain or fragment, Saccharomyces cerevisiae, UniProt P14291 733-819, looked up)
chain: NTFTNKLQEQIYSSINHFSNELVRKISIINQELNKKILKELSEKYQKLFSELQDNFQNDTNEMLKFMGEIKDMMNLPEDQLVHAIRT
stoichiometry N (mass photometry): 4

B3: MBP-Red1^733-819/I743R (domain or fragment, Saccharomyces cerevisiae, UniProt P14291 733-819, looked up)
chain: NTFTNKLQEQRYSSINHFSNELVRKISIINQELNKKILKELSEKYQKLFSELQDNFQNDTNEMLKFMGEIKDMMNLPEDQLVHAIRT
stoichiometry N (mass photometry): 4

B4
binding result [2]: binds
binding result [3]: binds

B5: MBP-Red1^733-827/I743R (domain or fragment, Saccharomyces cerevisiae, UniProt P14291 733-827, looked up)
chain: NTFTNKLQEQRYSSINHFSNELVRKISIINQELNKKILKELSEKYQKLFSELQDNFQNDTNEMLKFMGEIKDMMNLPEDQLVHAIRTRKFDNNKR
stoichiometry N (SEC-MALS): 4
stoichiometry N (mass photometry): 2

B6: MBP-Red1^733-827 (coiled-coil, WT) (domain or fragment, Saccharomyces cerevisiae, UniProt P14291 733-827, looked up)
chain: NTFTNKLQEQIYSSINHFSNELVRKISIINQELNKKILKELSEKYQKLFSELQDNFQNDTNEMLKFMGEIKDMMNLPEDQLVHAIRTRKFDNNKR
stoichiometry N (mass photometry): 2 and 4

FHNVNNIPKISEVQNFLVLDYIE (peptide, UniProt P14291 340-362, looked up) [MBP-Red1 (340-362), wild-type closure motif]
binding result (strep-Hop1 FL K593A): binds
